Laboratory results taken from the Immune Epitope Database (IEDB).

How the values were obtained:
[1] = biological target: HLA-A*01:01; experiment: IEDB peptide-MHC binding, purified MHC/competitive/radioactivity; filed as Kd, often an IC50 or EC50 that approximates it; ≥ and ≤ were set here for values at or beyond the usual limits of such assays; settings: source organism: Homo sapiens
[2] = biological target: HLA-A*01:01; experiment: IEDB peptide-MHC binding, purified MHC/competitive/radioactivity; ≥ and ≤ were set here for values at or beyond the usual limits of such assays; settings: source organism: Homo sapiens

Row | Sequence | Kd [1] | IC50 [2]
1 | LVFGIELMEV | ≥ 36 µM | –
2 | LVTCLGLSY | 2.98 µM | –
3 | FATCLGLSY | – | 0.658 µM
4 | KVAELVHFL | ≥ 36 µM | –
5 | LGSVVGNWQY | 12.5 µM | –

Further lines, results first:

Row | Kd [1] | IC50 [2] | Sequence
6 | ≥ 36 µM | – | LYIFATCLGL
7 | ≥ 36 µM | – | LLGDNQIMPK
8 | ≥ 36 µM | – | KMVELVHFLL
9 | ≥ 36 µM | – | NYPLWSQSY
10 | 12.5 µM | – | IFATCLGLSY
